# Assay results from patent US7172876B2, “Method of screening therapeutic agents for nerve degeneration associated diseases” (Takeda Pharmaceutical Company Limited, priority 2002, dated 2007).
# Residue numbers refer to the chain shown, from its start. Ends that are not written are not given here. * marks the point of attachment. For = O=C*
# How the values were obtained:
# FPRL1 [1] = molecular target: T1, FPRL1 (Homo sapiens, UniProt P25090); settings: reported in the literature; cited from earlier work
# T1 sequence (P25090 1-351): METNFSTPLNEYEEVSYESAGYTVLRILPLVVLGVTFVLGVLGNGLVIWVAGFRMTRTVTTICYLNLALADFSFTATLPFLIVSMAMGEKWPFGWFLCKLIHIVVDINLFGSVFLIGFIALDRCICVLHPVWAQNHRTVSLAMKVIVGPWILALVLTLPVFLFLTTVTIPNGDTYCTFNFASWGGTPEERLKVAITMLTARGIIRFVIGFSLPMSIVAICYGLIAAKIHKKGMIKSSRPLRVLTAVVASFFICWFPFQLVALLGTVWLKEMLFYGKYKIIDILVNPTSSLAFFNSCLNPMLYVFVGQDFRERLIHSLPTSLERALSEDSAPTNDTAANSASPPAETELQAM
# FPRL2 [2] = molecular target: T2, FPRL2 (Homo sapiens, UniProt P25089); settings: reported in the literature; cited from earlier work
# T2 sequence (P25089 1-353): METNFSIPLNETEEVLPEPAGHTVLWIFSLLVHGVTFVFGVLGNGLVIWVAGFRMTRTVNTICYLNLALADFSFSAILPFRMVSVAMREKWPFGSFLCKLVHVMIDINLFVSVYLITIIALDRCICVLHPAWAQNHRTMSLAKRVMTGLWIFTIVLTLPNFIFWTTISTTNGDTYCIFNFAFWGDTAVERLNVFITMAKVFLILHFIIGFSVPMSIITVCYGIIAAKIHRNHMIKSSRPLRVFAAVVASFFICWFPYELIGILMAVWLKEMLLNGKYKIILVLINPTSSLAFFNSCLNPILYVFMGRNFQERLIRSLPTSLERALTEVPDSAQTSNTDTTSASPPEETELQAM
# hFPRL2 = molecular target: T3, hFPRL2 (Homo sapiens, UniProt P25089); assay: Inhibition of forskolin-increased intracellular cAMP in human FPRL2-expressing CHO cells; assay type: cell-based; settings: 1 μM forskolin
# T3 construct: expressed in transfected cells; host or cells: CHO cells (clone No. 17)
# T3 sequence (P25089 1-353 G94A/S211T/D338H): T2 sequence (P25089 1-353) with G94A, S211T, D338H
# Description: (§1) CHO cells expressing each receptor were washed with an assay medium (HBSS (GibcoBRL) supplemented with 0.1% bovine serum albumin and 0.2 mM IBMX) and then cultured at 37° C. in 5% CO2 for 30 minutes. Humanin (Peptide Research Laboratory, Co.) or related substances diluted at each concentration with the assay buffer were added thereto, and then forskolin was added at a final concentration of 1 μM. The cells were cultured at 37° C. in 5% CO2 for 30 minutes. The culture supernatant was discarded, and the amount of cAMP in the cells was measured with a plate reader (ARVO sx multi-label counter, manufactured by Wallac) according to a protocol of a cAMP screen kit (Applied Biosystems). Assuming that the amount of cAMP produced in the cells to which 1 μM forskolin had been added was 100% and the amount of cAMP produced in the cells to which forskolin had not been added was 0%, the amount of cAMP upon addition of each agonist is shown in %. The concentration at which the amount of cAMP produced was inhibited by 50% (EC50) was calculated from logit-log plotting.
# mFPRL2 = molecular target: T4, mFPRL2 (Mus musculus, UniProt O88536); assay: Inhibition of forskolin-increased intracellular cAMP in mouse FPRL2-expressing CHO cells; assay type: cell-based; settings: 1 μM forskolin
# T4 construct: expressed in transfected cells; host or cells: CHO cells (clone No. 15); expression vector pAKKO-111H
# T4 sequence (O88536 1-351): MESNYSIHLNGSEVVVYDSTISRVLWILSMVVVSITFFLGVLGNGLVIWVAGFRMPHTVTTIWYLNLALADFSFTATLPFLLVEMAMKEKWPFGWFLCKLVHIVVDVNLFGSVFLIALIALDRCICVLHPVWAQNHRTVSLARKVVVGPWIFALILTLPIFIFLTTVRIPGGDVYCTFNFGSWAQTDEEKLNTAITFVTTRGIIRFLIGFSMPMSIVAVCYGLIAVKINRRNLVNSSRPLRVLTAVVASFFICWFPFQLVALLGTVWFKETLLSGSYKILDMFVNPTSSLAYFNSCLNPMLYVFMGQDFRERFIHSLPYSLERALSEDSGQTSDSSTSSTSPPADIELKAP
# Description: as §1
# rFPRL1 = assay: Inhibition of forskolin-increased intracellular cAMP in rat FPRL1-expressing CHO cells; assay type: cell-based; settings: 1 μM forskolin
# Sequence of rFPRL1 (as listed by the source): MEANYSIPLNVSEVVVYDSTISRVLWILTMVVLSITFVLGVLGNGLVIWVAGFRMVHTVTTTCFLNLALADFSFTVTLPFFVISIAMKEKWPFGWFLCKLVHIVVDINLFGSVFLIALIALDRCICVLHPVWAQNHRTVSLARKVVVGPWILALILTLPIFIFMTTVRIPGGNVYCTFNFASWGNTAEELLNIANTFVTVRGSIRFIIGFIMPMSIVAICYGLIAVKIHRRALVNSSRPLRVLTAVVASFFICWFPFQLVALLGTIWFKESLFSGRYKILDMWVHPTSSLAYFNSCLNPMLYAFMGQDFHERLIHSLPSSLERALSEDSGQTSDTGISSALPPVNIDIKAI
# Description: as §1
# FPRL1 [3] = molecular target: T1, FPRL1; assay: Inhibition of forskolin-increased intracellular cAMP in human FPRL1-expressing CHO cells; assay type: cell-based; set-up: expressed in transfected cells; host or cells: CHO cells (clone No. 8; the title also lists a 'Human FPRL1' clone No. 14); settings: 1 μM forskolin
# FPRL2 [4] = molecular target: T2, FPRL2; settings: reported in the literature; cited from earlier work; remark: listed apart in the source
# FPRL1-GFP = assay: Inhibition of forskolin-increased intracellular cAMP in CHO cells expressing FPRL1-GFP; assay type: cell-based; settings: 1 μM forskolin; CHO cells expressing FPRL1-GFP compared with mock CHO cells (vector only)
# Description: CHO cells expressing FPRL1-GFP were washed with an assay medium (HBSS (GibcoBRL) supplemented with 0.1% bovine serum albumin and 0.2 mM IBMX) and then cultured at 37° C. in 5% CO2 for 30 minutes. Humanin (Peptide Research Laboratory, Co.) or related substances diluted at each concentration with the assay buffer were added thereto, and then forskolin was added at a final concentration of 1 μM. The cells were cultured at 37° C. in 5% CO2 for 30 minutes. The culture supernatant was discarded, and the amount of cAMP in the cells was measured with a plate reader (ARVO sx multi-label counter, manufactured by Wallac) according to a protocol of a cAMP screen kit (Applied Biosystems).
# nerve cells = settings: reported in the literature; cited from earlier work
Compound,reaction with mFPRL2 (inhibition of forskolin-increased intracellular cAMP) (mFPRL2),reaction with rFPRL1 (inhibition of forskolin-increased intracellular cAMP) (rFPRL1),reaction with hFPRL1 (inhibition of forskolin-increased intracellular cAMP) (FPRL1 [3]),further results
CCCCC[C@H](O)/C=C/C=C\C=C\C=C\[C@@H](O)[C@@H](O)CCCC(=O)O [lipoxin A4],–,–,–,agonist of FPRL1 (FPRL1 [1]): Agonists
"Aβ42: β-amyloid (1-42), intrinsic substance reported as agonist of FPRL1",–,–,–,agonist of FPRL1 (FPRL1 [1]): agonist
Trp-Lys-Tyr-Met-Val-dMet-NH2 [W-Peptide],–,–,–,agonist of FPRL2 (FPRL2 [2]): agonist
[Gly^14]-humanin: [Gly^14]-human humanin (1-24) consisting of the amino acid sequence represented by SEQ ID NO: 4 (MAPRGFSCLLLLTGEIDLPVKRRA; Human),react,react,react,reaction with hFPRL2 (inhibition of forskolin-increased intracellular cAMP) (hFPRL2): strongly
"formyl-Humanin: human humanin (1-24), SEQ ID NO: 3, wherein Met of the N-terminus is formylated",react,react,–,–
formyl-Met-Leu-Phe [fMLF],–,–,–,reaction of human FPRL2 with fMLF (FPRL2 [4]): does not react
humanin: human humanin (1-24) consisting of the amino acid sequence represented by SEQ ID NO: 3,react,react,react,decrease of the amount of intracellular cAMP increased by addition of forskolin (FPRL1-GFP): dose-dependent and specific decrease; reaction with hFPRL2 (inhibition of forskolin-increased intracellular cAMP) (hFPRL2): strongly; death of nerve cells into which the familial Alzheimer's disease gene had been introduced (nerve cells): inhibited; nerve apotosis induced by adding β-amyloid (nerve cells): inhibited
"mt-formyl-Humanin: human humanin (1-21), SEQ ID NO: 6, wherein Met at the N-terminus is formylated (For-MAPRGFSCLLLLTSEIDLPVK)",react,react,strongly,–
"mt-formyl-rattin: rat humanin (1-21), SEQ ID NO: 9, wherein Met at the N-terminus is formylated (For-MAKRGFNCLLLSISEIDLPVK)",react,react,strongly,–
